Measurements published in US20250223342A1 (ARGENX, published 2025).
Numbering of substitutions follows the chain as printed. Like-named read-outs stand apart in the source and are kept apart here.

B1: 12G03 (VHH)
VHH: QVQLVESGGGLVQAGGSLRLSCAASERAFSHSNMAWFRQAPGKEREFVAHIHWRGSTTYLDSVKGRFTISRDNAKNTVYLQMNGLRLEDTAVYYCAADSARRILVTVSTSYDYWGQGTQVTVSS
B2: 11C03 parental fused at the C-terminus of Fc-ABDEG (Fc fusion, not shown: a dimerising Fc or GST; small tags and cut ends)
chain: QLQVVESGGGLVQAGGSLRLSCAASERTFVAYPMGWFRQAPEKEREFVAGISWFAGATTDYADSVEGRFTISRDNAKNTAYLQMNNLKPEDTAVYYCAISHQLPGGRPGRDMDSYSYWGHGTQVTVSS
B3: 11C03 (VHH)
VHH: B2 chain
notes: also called 11C03 parental (VHH)
B4: 11C03-v6 fused at the C-terminus of Fc-ABDEG (Fc fusion, not shown: a dimerising Fc or GST; small tags and cut ends)
chain: B2 chain with G105A
B5: 9F02 (VHH)
VHH: EVQLVESGGGLVQAGGSLRLSCTASRRAFIGYAMGWFRQAPGKEREFVAAISWFAGDTTDYADSVKGRFTISRDNAKNTVYLQMNGLKPEDTAVYVCAASSARPMSGRSDEYHYWGQGTQVTVSS
B6: 9E10 (VHH)
VHH: B5 VHH with E1Q, V2L, L4V, A24T, R26G, D63N, G86S, M105L, G107S
B7: Motavizumab-Fab fragment fused with 2H11 C-terminally to the light chain using a 20GS linker (protein, part only; not given: motavizumab Fab and linker, not shown: another chain or arm of the molecule; small tags and cut ends)
VHH: ELQVVESGGGLVQAGGSLRLSCAASGRTFRSNTMGWFRQAPGKEREFVAAITWSGGTTYYADSVKGRFAISGDNAKNTVYLQMNSLKPEDTAVYYCAAEGPKWEPWNGIYHPADFGSWGQGTQVTVSS
B8: 2H11-v12 fused at the C-terminus of Fc-ABDEG (two-armed Fc-ABDEG-20GS-Cterm fusion) (Fc fusion, not shown: a dimerising Fc or GST; large carriers; small tags and cut ends)
VHH: B7 VHH with Y110A
B9: 2H11-v16 fused at the C-terminus of Fc-ABDEG (two-armed Fc-ABDEG-20GS-Cterm fusion) (Fc fusion, not shown: a dimerising Fc or GST; large carriers; small tags and cut ends)
VHH: B7 VHH with F115A
B10: 2H11-v9 fused at the C-terminus of Fc-ABDEG (two-armed Fc-ABDEG-20GS-Cterm fusion) (Fc fusion, not shown: a dimerising Fc or GST; large carriers; small tags and cut ends)
VHH: B7 VHH with N107A
B11: 2H11-v15 fused at the C-terminus of Fc-ABDEG (two-armed Fc-ABDEG-20GS-Cterm fusion) (Fc fusion, not shown: a dimerising Fc or GST; large carriers; small tags and cut ends)
VHH: B7 VHH with D114A

Legend:
human serum albumin [1] = molecular target: T1, human serum albumin (human, UniProt P02768 25-609); test: SPR (Biacore 8K+, single cycle kinetics), HSA on CM5 chip
T1 construct: also called HSA

human serum albumin [2] = molecular target: T1, human serum albumin; test: SPR (Biacore 8K+, single cycle kinetics), HSA on CM5 chip, citrate buffer pH 5.5
human serum albumin [3] = molecular target: T1, human serum albumin; test: SPR (Biacore 8K+, single cycle kinetics), HSA on CM5 chip, HBS-EP+ pH 7.4
human serum albumin [4] = molecular target: T1, human serum albumin; test: SPR (Biacore), VHH clone, pH 5.5
human serum albumin [5] = molecular target: T1, human serum albumin; test: SPR (Biacore), off-rate pH 7.4 over pH 5.5
[6] = molecular target: T2, cynomolgus monkey serum albumin (cynomolgus monkey, UniProt A2V9Z4 25-608); test: species reactivity, screening by ELISA and Biacore
T2 construct: also called cyno albumin; CSA

mouse serum albumin = molecular target: T3, mouse serum albumin (mouse, UniProt P07724 25-608); test: species reactivity, screening by ELISA and Biacore
T3 construct: also called MSA; mouse albumin

human serum albumin [7] = molecular target: T1, human serum albumin; test: SPR (Biacore), VHH clone, pH 7.4
[8] = molecular target: T4, isolated DII of serum albumin (UniProt P02768 211-403, limits assumed); test: DII binder column of the clone screening
T4 construct: domain: DII

human serum albumin [9] = molecular target: T1, human serum albumin; test: SPR (Biacore 3000), HSA on chip, Fc-ABDEG fusion, pH 5.5
human serum albumin [10] = molecular target: T1, human serum albumin; test: SPR (Biacore 3000), HSA on chip, Fc-ABDEG fusion, pH 7.4
human serum albumin [11] = molecular target: T1, human serum albumin; test: as above; remark: listed apart in the source
human serum albumin [12] = molecular target: T1, human serum albumin; test: SPR (Biacore 3000), HSA on chip, Fc-ABDEG fusion, ratio of R0
human serum albumin [13] = molecular target: T1, human serum albumin; test: as above; remark: listed apart in the source
[14] = molecular target: T2, cynomolgus monkey serum albumin; test: SPR (Biacore 3000), cyno albumin on chip, Fc-ABDEG fusion, pH 7.4
[15] = molecular target: T2, cynomolgus monkey serum albumin; test: SPR (Biacore 3000), cyno albumin on chip, Fc-ABDEG fusion, pH 5.5
[16] = molecular target: T2, cynomolgus monkey serum albumin; test: SPR (Biacore 3000), cyno albumin on chip, Fc-ABDEG fusion, ratio of R0
human serum albumin [17] = molecular target: T1, human serum albumin; test: SPR (Biacore 3000), HSA on chip, Fc-ABDEG fusion, pH 5.5; remark: listed apart in the source
[18] = molecular target: T2, cynomolgus monkey serum albumin; test: SPR (Biacore 3000), albumin on chip, Fc-ABDEG fusion

| Molecule | Kd (human serum albumin [4]) | koff (human serum albumin [4]) | Ratio Kd (human serum albumin [5]) | binding result (mouse serum albumin) | koff (human serum albumin [7]) | binding result [18] | other results |
| --- | --- | --- | --- | --- | --- | --- | --- |
| Motavizumab-Fab fragment with Alb23 fused C-terminally to the light chain using a 20GS linker | – | – | – | – | – | – | KD ratio (pH 7.4 / pH 5.5) (human serum albumin [1]): 5.28; Kd (human serum albumin [2]): 12.3 nM; Kd (human serum albumin [3]): 65 nM |
| B1 | 8.14 nM | 0.00126 s⁻¹ | 4.1 | binds | 0.00522 s⁻¹ | – | binding result [6]: binds; binding result [8]: no binding |
| B2 | – | – | – | – | – | – | R0 pH 5.5 (human serum albumin [9]): 229 RU; R0 pH 7.4 (human serum albumin [10]): 42.2 RU; R0 pH 7.4 (human serum albumin [11]): 57 RU; R0 5.5/7.4 (human serum albumin [12]): 4.22; R0 5.5/7.4 (human serum albumin [13]): 4; R0 pH 7.4 [14]: 33 RU; R0 pH 5.5 [15]: 220 RU; R0 5.5/7.4 [16]: 6.7; R0 pH 5.5 (human serum albumin [17]): 177 RU |
| B3 | 4.12 nM | 0.00051 s⁻¹ | 7.7 | binds | 0.0039 s⁻¹ | – | – |
| B4 | – | – | – | – | – | – | R0 pH 7.4 (human serum albumin [10]): 12.1 RU; R0 5.5/7.4 (human serum albumin [12]): 3.26; R0 pH 5.5 (human serum albumin [17]): 39.3 RU |
| B5 | 0.575 nM | 7.8e-05 s⁻¹ | 1.6 | binds | 0.00013 s⁻¹ | – | binding result [6]: binds |
| B6 | 15.4 nM | 0.00246 s⁻¹ | 1.7 | binds | 0.00412 s⁻¹ | – | binding result [6]: binds |
| B7 | – | – | – | – | – | – | KD ratio (pH 7.4 / pH 5.5) (human serum albumin [1]): 92.6; Kd (human serum albumin [2]): 2.85 nM; Kd (human serum albumin [3]): 264 nM |
| B8 | – | – | – | – | – | no binding | – |
| B9 | – | – | – | – | – | no binding | – |
| B10 | – | – | – | – | – | no binding | – |
| B11 | – | – | – | – | – | no binding | – |
